Results from US20250264433A1.

B1: EspB cyclic peptide #49 (positions 193-207) (peptide)
peptide: CTSAQKASQVAEEAADC
modifications: not checked
B2: mAb-EspB-B7 (antibody, V domains shown)
VH: EVQLLESGGGLVQPGGSLRLSCAASGFTFSHYAMNWVRQAPGKGLEWVSAINSNGDSTYYPDTVKDRFTISRDNSKNTLYLQMNSLRAEDTAVYYCARDRRAGYFDYWGQGTLVTVSS
VL: DIVLTQPPSASGTPGQRVTISCSGSRDNIGKNYVSWYQQLPGTAPKLLIYRNNQRPSGVPDRFSGSKSGTSASLAISGLRSEDEADYYCSAWDTSLNAYVFGPGTQLTVL

Key:
[1] = molecular target: mAb-EspB-B7
[2] = molecular target: EspB cyclic peptide #49 (positions 193-207) (Enteropathogenic Escherichia coli (EPEC)); test: ELISA, plate coated with peptide #49, serially diluted mAb, anti-human IgG-HRP
[3] = molecular target: EspB cyclic peptide #50 (positions 197-211) (Enteropathogenic Escherichia coli (EPEC)); test: ELISA, plate coated with peptide #50, serially diluted mAb, anti-human IgG-HRP

Row | Binder | IC50 (read off the curve) [1] [µg/mL] | EC50 (read off the curve) [2] [µg/mL] | EC50 (read off the curve) [3] [µg/mL]
1 | B1 | 0.8 |  | 
2 | B2 |  | 0.5 | 0.5
